Reference: paper PMC5887453 (Nucleic Acids Research, 2018)
Where a chain is given by its changes, count along the chain named.

Columns and labels:
Test in all cases: native gel or EMSA
PhoEF-2 V198S = target: T1, PhoEF-2 V198S (Pyrococcus horikoshii, UniProt O59521 1-732, V198S)
T1 sequence (looked up): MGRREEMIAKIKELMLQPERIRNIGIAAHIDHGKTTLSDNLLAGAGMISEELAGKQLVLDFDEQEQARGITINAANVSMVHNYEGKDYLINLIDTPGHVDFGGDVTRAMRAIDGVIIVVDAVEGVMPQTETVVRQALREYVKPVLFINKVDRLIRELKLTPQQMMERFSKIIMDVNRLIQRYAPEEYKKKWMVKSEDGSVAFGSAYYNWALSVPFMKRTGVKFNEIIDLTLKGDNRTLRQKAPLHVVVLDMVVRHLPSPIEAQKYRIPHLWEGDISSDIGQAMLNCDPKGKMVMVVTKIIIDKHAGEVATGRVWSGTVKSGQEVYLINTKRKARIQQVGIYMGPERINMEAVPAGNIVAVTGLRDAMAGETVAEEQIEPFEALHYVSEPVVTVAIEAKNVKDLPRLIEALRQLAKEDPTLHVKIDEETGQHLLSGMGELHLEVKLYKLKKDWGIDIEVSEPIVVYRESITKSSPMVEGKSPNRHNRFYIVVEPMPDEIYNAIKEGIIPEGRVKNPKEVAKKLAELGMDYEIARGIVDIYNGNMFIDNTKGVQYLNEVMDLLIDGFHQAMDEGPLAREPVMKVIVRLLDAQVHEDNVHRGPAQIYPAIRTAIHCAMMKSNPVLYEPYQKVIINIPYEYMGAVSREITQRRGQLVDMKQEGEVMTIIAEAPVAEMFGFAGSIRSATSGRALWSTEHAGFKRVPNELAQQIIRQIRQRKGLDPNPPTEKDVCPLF

PhoEF-2 M168S = target: T2, PhoEF-2 M168S (Pyrococcus horikoshii, UniProt O59521 1-732, M168S)
T2 sequence (looked up): T1 sequence (looked up) with M165S, S195V

PhoEF-2 F205S = target: T3, PhoEF-2 F205S (Pyrococcus horikoshii, UniProt O59521 1-732, F205S)
T3 sequence (looked up): T1 sequence (looked up) with S195V, F202S

binding result (PhoEF-2 V198S): binds | binding result (PhoEF-2 M168S): binds | binding result (PhoEF-2 F205S): binds
B1: Pyrococcus horikoshii ribosomal stalk protein P1 (natural protein, UniProt O57705 1-108, looked up)
chain: MEYVYAALLLHSVGKEINEENLKAVLQAAGVEPEEARIKALVAALEGVNIDEVIEKAAMPVAVAAAPAAAPAEAGGEEKKEEEKKEEEEKEEEVSEEEALAGLSALFG
modifications: in the SPR only: biotin on amino groups via a PEG linker (EZ-Link NHS-PEG4-Biotin)
